Laboratory results reported in patent US20230407326A1, “INDUCIBLE PROMOTER FOR VIRAL VECTOR PRODUCTION” (ASKLEPIOS BIOPHARMACEUTICAL, INC., priority 2020, published 2023).

What was measured:
[1] = system: HEK293-F cells; assay: Luciferase expression from hypoxia-inducible promoters in transiently transfected HEK293-F cells under hypoxia; assay type: cell-based, human; settings: hypoxia 5% oxygen, 3, 5 and 24 hrs
Protocol: 40 ml of cells were grown in a 250 ml vented Erlenmeyer flask (Sigma-Aldrich CLS431144) at 37° C., 20% O2, 8% CO2 with agitation at 100 rpm. Cells were seeded as described in the manufacturer's instructions (300,000 cells/ml). HEK293-F were obtained from Thermofisher, R79007.
(§1) One day before transfection, the cells were counted using a haemocytometer and split to 500,000 cells/ml.
On the day of transfection, the cells are seeded to 1,000,000 cells/ml in 500 μl of appropriate medium (Freestyle 293 expression medium, 12338002) in a 24 well plate. 0.625 μg of DNA per well was then added to 10 μl of OptiMem medium (Thermofisher; 11058021) and incubated for 5 minutes at room temperature. […]
After transfection the cells were incubated for 24 hrs in normoxia conditions (20% oxygen) before being switched to a gas mix of 5% oxygen, 10% carbon dioxide and 85% nitrogen (hypoxia). […] Induction of the promoters was assessed by using luciferase activity after 3, 5 and 24 hrs in hypoxia.
(§2) Luciferase activity was measured using LARII (Dual Luciferase Reporter 1000 assay system, Promega, E1980).
Media was removed from the cells at the respective time point (0, 3, 5, 24 hrs after induction). […] 10 μl of supernatant was pipetted into white 96-well plate and luminescence measured by addition of 50 μl of LARII substrate. […]

[2] = system: CHO-GS cells; assay: Luciferase expression in transiently transfected CHO-GS suspension cells, normoxia vs 24 hrs hypoxia; assay type: cell-based, Chinese hamster; settings: CHO_GS suspension cell line
Protocol: 40 ml of cells were grown in a 250 ml vented Erlenmeyer flask (Sigma-Aldrich CLS431144) at 37° C., 20% O2, 8% CO2 with agitation at 100 rpm. Cells were seeded as at 300,000 cells/ml.
as §1
On the day of transfection, the cells are seeded to 1,000,000 cells/ml in 500 μl of appropriate medium (Thermofisher, CD-CHO 10743029) in a 24 well plate. 0.625 μg of DNA per well was then added to 10 μl of OptiMem medium (Thermofisher; 11058021) and incubated for 5 minutes at room temperature.
Concurrently, 0.625 μl of Freestyle Max reagent (Thermofisher, 16447100) was made up to 10 μl by addition of OptiMem and incubated for 5 minutes at room temperature. After this incubation, both mixes were added to the same tube and incubated at room temperature for 25-30 minutes. The DNA/Max reagent mix (20 μl/well) was then added directly to the cells and the cells incubated at 37° C., 8% CO2 with agitation at 100 rpm. […]
After transfection the cells were incubated for 24 hrs in normoxic conditions (20% oxygen). Induction of the promoters was assessed by using luciferase activity after 24 hrs in normoxia or hypoxia (5% oxygen, 10% carbon dioxide and 85% nitrogen). […] Luciferase activity was measured as described above.

[3] = system: HEK293-T cells; assay: Luciferase expression in transiently transfected HEK293-T cells, normoxia vs 24 hrs hypoxia; assay type: cell-based, human
Protocol: HEK293-T are seeded at a density of 20%. Once they reached a confluence between 60 and 80%, the media is changed with DMEM (#21885-025—Thermo Scientific) supplemented with 10% FBS (Gibco, 26140). After 3 hours, the cells were transfected by a transfection mix. The transfection mix is prepared by adding DNA (2 μg per 6 well plate) and PEI 25 kDA (#23966-1-Polyscience) in a ratio of 1:3 in sterile DPBS (#14190169—ThermoFisher Scientific). After mixing, the transfection mix is incubated at room temperature for 30 minutes and then added directly to the cells. After 16 to 18 h post transfection, the media is changed to DMEM+2% FBS. […]
After transfection the cells were incubated for 24 hrs in normoxic conditions (20% oxygen). Induction of the promoters was assessed by using luciferase activity after 24 hrs in normoxia or hypoxia (5% oxygen, 10% carbon dioxide and 85% nitrogen). […]
as §2
Media was removed from the cells at the respective time point (0, 3, 5, 24 hrs after induction). […] 10 μl of supernatant was pipetted into white 96-well plate and luminescence measured by addition of 50 μl of LARII substrate.
β-galactosidase activity was measured as per manufacturer's instructions (Mammalian βGalactosidase Assay Kit, 75707/75710, Thermo Scientific) using 25 μl of lysate. […]

B1: RTV-015: synthetic hypoxia-inducible promoter, five HRE1 and synthetic minimal promoter MP1, SEQ ID NO: 1 (nucleic acid)
DNA: ACGTGCGATGATGCGTAGCTAGTAGTGATGATGCGTAGCTAGTAGTACGTGCGATGATGCGTAGCTAGTAGTGATGATGCGTAGCTAGTAGTACGTGCGATGATGCGTAGCTAGTAGTGATGATGCGTAGCTAGTAGTACGTGCGATGATGCGTAGCTAGTAGTGATGATGCGTAGCTAGTAGTACGTGCTTGGTACCATCCGGGCCGGCCGCTTAAGCGACGCCTATAAAAAATAGGTTGCATGCTAGGCCTAGCGCTGCCAGTCCATCTTCGCTAGCCTGTGCTGCGTCAGTCCAGCGCTGCGCTGCGTAACGGCCGCC
promoter activity (luciferase) relative to the other promoters [1]: weakest
luciferase expression in normoxia and after 24 hours in hypoxia [2]: almost no luciferase activity in normoxia but is induced after 24 hours in hypoxia
luciferase expression in normoxia and after 24 hours in hypoxia [3]: almost no luciferase activity in normoxia but is induced after 24 hours in hypoxia
